In patent publication US20170066801A1, “ALPHA3BETA HYDROGEN BOND SURROGATE MACROCYCLES AS MODULATORS OF RAS” (NEW YORK UNIVERSITY, priority 2014, published 2017) one finds Kd and fold weaker affinity than α3β-HBSSOS data, which are given here for 3 molecules.

One experiment deals with T1, HRas^(1-166) (Homo sapiens, UniProt P01112).
T1 construct: 6×His-tagged HRas WT 1-166; made in house
Kind of experiment: In vitro pulldown binding assay with 6×His-tagged HRas 1-166 and fluorescein-tagged SOS peptides. Particulars: fluorescein-tagged peptides, 4° C., 1 hour. As to the method:
Recombinantly purified 6×His-tagged HRas WT 1-166 was incubated with Ni-NTA sepharose beads, generating recombinant Ras on solid support. FITC labeled HBS peptides were incubated in the presence of recombinant HRas-6×His/Ni-NTA Sepharose complex at 4° C. for 1 hour. Beads complexes were pelleted and washed 5× with protein buffer (20 mM Tris-HCl pH 7.6, 50 mM NaCl, 4 mM EDTA, 10 mM MgCl2), resuspended in reducing buffer (126 mM Tris-HCL pH 6.8, 20% glycerol, 4% SDS, 0.02% bromophenol blue, 2.5% β-mercaptoethanol), boiled for 10 minutes at 95° C., and subjected to SDS-PAGE with an acrylamide percentage of 20% to allow for sufficient resolution of the HBS helices. SDS-PAGE gels were imaged using an ImageQuant™ LAS 4000 biomolecular imager (GE Healthcare, Piscataway, N.J., USA). Quantification of fluorescence by FITC-HBS helices in gel was determined by manufacturer provided ImageQuant™ TL software. Raw values were normalized to total input and plotted on a semilog graph with GraphPad Prism version 6.00 for OSX (GraphPad Software, La Jolla Calif. USA, www.graphpad.com).
The binding affinity of the designed compounds for Ras was determined using in vitro pulldown assays with recombinantly purified 6×His-tagged HRas^(1-166) and fluorescein-tagged SOS peptides (FIGS. 8 and 9, and Table 2). […]

For experiment [1], the target named is 6×His-tagged HRas WT 1-166 (UniProt P01112). In words: in vitro pull-down: fluorescein-tagged peptide on 6×His-HRas 1-166 / Ni-NTA beads, in-gel fluorescence.

Non-standard residues stand in square brackets, D forms with d. Residues, ends and D or L forms follow the SMILES beside them. No end group written: not given here. β3hI = CC[C@H](C)[C@H](N)CC(=O)O; β3hE = N[C@@H](CCC(=O)O)CC(=O)O; β3hA = C[C@H](N)CC(=O)O; Flu = fluorescein

For orientation: Kd means the constant that tells how readily two partners part at equilibrium. With `CC[C@H](C)[C@@H](CC(=O)N[C@@H](Cc1ccc(O)cc1)C(=O)N[C@@H](CCCNC(=N)N)C(=O)N[C@@H](CC(C)C)C(=O)N[C@@H](CCC(=O)O)CC(=O)N[C@@H](CC(C)C)C(=O)N[C@@H](CC(C)C)C(=O)N[C@@H](CCCCN)C(=O)N[C@@H](C)CC(=O)N[C@@H](CCC(=O)O)C(=O)N[C@@H](CCC(=O)O)C(=O)N[C@@H](C)C(=O)N[C@@H](CC(N)=O)C(N)=O)NC(=O)CNC(=O)[C@H](CCC(=O)O)NC(=O)[C@H](Cc1ccccc1)NC(C)=O` [α3β-UNCSOS, Ac-FEGiYRLeLLKaEEAN-NH2] (Ac-FEG[β3hI]YRL[β3hE]LLK[β3hA]EEAN-NH2), the Kd on HRas^(1-166) is 30.6 ± 12 µM.

B1: α-HBSSOS (fluorescein-tagged) (peptide)
peptide: FEGIYRLELLKAEEAN
modifications: not fully specified; also: hydrogen bond surrogate macrocycle at N-terminus, fluorescein tag, site and linker not given here
B1 yielded a Kd in experiment [1] of 7.75 µM.

Take Ac-FEG[β3hI]YRL[β3hE]LLK[β3hA]EEANK(Flu)-NH2 (not fully specified (residue 3); printed as Ac-FEG*iYRLeLLKaEEANK(Flu)-NH2) [α3β-UNCSOS-Flu]: the fold weaker affinity than α3β-HBSSOS in experiment [1] amounted to 136 fold.
